Data reported in paper PMC8070244, “The MarR-Type Regulator PA3458 Is Involved in Osmoadaptation Control in Pseudomonas aeruginosa” (International Journal of Molecular Sciences, 2021).

Biological target: the molecule itself
Experiment: SEC-MALS; 100 uL of 1 mg/ml sample on Superdex 200 Increase 10/300 in LEW buffer (50 mM NaH2PO4, 300 mM NaCl pH 8), room temperature, 0.5 mL/min

B1: PA3458-His6 (natural protein, Pseudomonas aeruginosa PAO1161, UniProt Q9HYE8 1-157, looked up)
chain: MVESNKTAADTYSLAIFRAIRRLQQAAEIHSKRLSRYGGLTPLQLLILHVLAVEGELTATQLAKLVSLSQASLSGVLDRLEGRGLLYRRRDEQDRRKSWLHLDPAGHEALAEAPPLLPEYVIERFAALPEWERHGLLAALLRAADLFGLPEEDVEEE
notes: PA3458, MarR-type transcriptional regulator of Pseudomonas aeruginosa PAO1161 (locus D3C65_07830; PAO1 ortholog PA3458), 157 residues (17.6 kDa); the gene was amplified with primers 13#/14# (forward primer begins at the ATG; 483 bp fragment) and cloned NcoI/HindIII in pET28a; it says that the gene (157 codons) was cloned as a PA3458-his6 fusion, with the forward primer starting at the ATG; Linker …
**Q.** B1 was tested. Which “stoichiometry N” value did it give?
**A.** The value was 4.
